# Patent US20190144529A1 (UCB, published 2019)
# B1: CA645 gL4gH27 Fab (Fab, V domains shown)
# VH: EVQLLESGGGLVQPGGSLRLSCAVSGIDLSNYAINWVRQAPGKGLEWIGIIWGSGTTFYATWAKGRFTISRDNSKNTVYLQMNSLRAEDTAVYYCARTVPGYSTAPYFDLWGQGTLVTVSS
# VL: DIQMTQSPSSVSASVGDRVTITCQSSPSVWSNFLSWYQQKPGKAPKLLIYEASKLTSGVPSRFSGSGSGTDFTLTISSLQPEDFATYYCGGGYSSISDTTFGGGTKVEIK
# notes: Fab: human gamma1 CH1, human kappa (Km3); Kabat numbering
# B2: CA645 gL4gH28 Fab (Fab, V domains shown)
# VH: EVQLLESGGGLVQPGGSLRLSCAVSGIDLSNYAINWVRQAPGKGLEWIGIIWVSGTTFYATWAKGRFTISRDNSKNTVYLQMNSLRAEDTAVYYCARTVPGYSTAPYFDLWGQGTLVTVSS
# VL: DIQMTQSPSSVSASVGDRVTITCQSSPSVWSNFLSWYQQKPGKAPKLLIYEASKLTSGVPSRFSGSGSGTDFTLTISSLQPEDFATYYCGGGYSSISDTTFGGGTKVEIK
# notes: as for B1
# B3: CA645 gL4gH30 Fab (Fab, V domains shown)
# VH: EVQLLESGGGLVQPGGSLRLSCAVSGIDLSNYAINWVRQAPGKGLEWIGIIWTSGTTFYATWAKGRFTISRDNSKNTVYLQMNSLRAEDTAVYYCARTVPGYSTAPYFDLWGQGTLVTVSS
# VL: DIQMTQSPSSVSASVGDRVTITCQSSPSVWSNFLSWYQQKPGKAPKLLIYEASKLTSGVPSRFSGSGSGTDFTLTISSLQPEDFATYYCGGGYSSISDTTFGGGTKVEIK
# notes: as for B1
# B4: CA645 gL4gH40 Fab (Fab, V domains shown)
# VH: EVQLLESGGGLVQPGGSLRLSCAVSGIDLSNYAINWVRQAPGKGLEWIGIIWASGTTFYATWAKGRFTISRDNSKNTVYLQMNSLRAEDTAVYYCARTVPTYSTAPYFDLWGQGTLVTVSS
# VL: DIQMTQSPSSVSASVGDRVTITCQSSPSVWSNFLSWYQQKPGKAPKLLIYEASKLTSGVPSRFSGSGSGTDFTLTISSLQPEDFATYYCGGGYSSISDTTFGGGTKVEIK
# notes: as for B1
# B5: CA645 gL4gH29 Fab (Fab, V domains shown)
# VH: EVQLLESGGGLVQPGGSLRLSCAVSGIDLSNYAINWVRQAPGKGLEWIGIIWSSGTTFYATWAKGRFTISRDNSKNTVYLQMNSLRAEDTAVYYCARTVPGYSTAPYFDLWGQGTLVTVSS
# VL: DIQMTQSPSSVSASVGDRVTITCQSSPSVWSNFLSWYQQKPGKAPKLLIYEASKLTSGVPSRFSGSGSGTDFTLTISSLQPEDFATYYCGGGYSSISDTTFGGGTKVEIK
# notes: as for B1
# B6: CA645 gL4gH38 Fab (Fab, V domains shown)
# VH: EVQLLESGGGLVQPGGSLRLSCAVSGIDLSNYAINWVRQAPGKGLEWIGIIWASGTTYYATWAKGRFTISRDNSKNTVYLQMNSLRAEDTAVYYCARTVPGYSTAPYFDLWGQGTLVTVSS
# VL: DIQMTQSPSSVSASVGDRVTITCQSSPSVWSNFLSWYQQKPGKAPKLLIYEASKLTSGVPSRFSGSGSGTDFTLTISSLQPEDFATYYCGGGYSSISDTTFGGGTKVEIK
# notes: as for B1
# B7: CA645 gL4gH39 Fab (Fab, V domains shown)
# VH: EVQLLESGGGLVQPGGSLRLSCAVSGIDLSNYAINWVRQAPGKGLEWIGIIWASGTTFYATWAKGRFTISRDNSKNTVYLQMNSLRAEDTAVYYCARTVPIYSTAPYFDLWGQGTLVTVSS
# VL: DIQMTQSPSSVSASVGDRVTITCQSSPSVWSNFLSWYQQKPGKAPKLLIYEASKLTSGVPSRFSGSGSGTDFTLTISSLQPEDFATYYCGGGYSSISDTTFGGGTKVEIK
# notes: as for B1
# B8: CA645 gL4gH41 Fab (Fab, V domains shown)
# VH: EVQLLESGGGLVQPGGSLRLSCAVSGIDLSNYAINWVRQAPGKGLEWIGIIWASGTTFYATWAKGRFTISRDNSKNTVYLQMNSLRAEDTAVYYCARTVPDYSTAPYFDLWGQGTLVTVSS
# VL: DIQMTQSPSSVSASVGDRVTITCQSSPSVWSNFLSWYQQKPGKAPKLLIYEASKLTSGVPSRFSGSGSGTDFTLTISSLQPEDFATYYCGGGYSSISDTTFGGGTKVEIK
# notes: as for B1
# Target: T1, human serum albumin (human, UniProt P02768 25-609)
# T1 construct: mature; Bought purified serum albumin; also called HSA; Human albumin
# Experiment: SPR, Fab captured; albumin taken as HSA;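 also: antibody held on a capture surface, albumin injected for 3 min association then dissociation followed, signals corrected using a blank reference flow cell and buffer-only injections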
# Description: Each assay cycle consisted of firstly capturing the antibody sample using a 1 min injection, before an association phase consisting of a 3 min injection of albumin, after which dissociation was monitored. After each cycle, the capture surface was regenerated with two 1 min injections of 40 mM HCl followed by 30 s of 5 mM NaOH. The flow rates used were 10 μl/min for capture, 30 μl/min for both the association and dissociation phases, and 10 μl/min for regeneration. A blank flow-cell was used for reference subtraction and buffer-blank injections were included to subtract instrument noise and drift.
Binder,Kd,koff,kon
B1,1.73 nM,8.4e-05 s⁻¹,48300 M⁻¹ s⁻¹
B2,10.6 nM,0.000515 s⁻¹,48500 M⁻¹ s⁻¹
B3,23.2 nM,0.00102 s⁻¹,43800 M⁻¹ s⁻¹
B4,6.4 nM,0.000356 s⁻¹,55600 M⁻¹ s⁻¹
B5,7.97 nM,0.00038 s⁻¹,47700 M⁻¹ s⁻¹
B6,12.2 nM,0.000581 s⁻¹,47500 M⁻¹ s⁻¹
B7,14 nM,0.00075 s⁻¹,53500 M⁻¹ s⁻¹
B8,6.54 nM,0.000351 s⁻¹,53700 M⁻¹ s⁻¹
